Data published in patent US20170042979A1.

Target: soluble form of cation-independent mannose-6-phosphate receptor (lacking the membrane anchor sequence)
Assay: SPR (Biacore), soluble CIMPR immobilised on dextran chip, analyte flowed at 20 µL/min, RU after 3 min less control cell

fold higher concentration needed for the same change in RU, against unmodified α-galactosidase: 10 fold
Substance: α-galactosidase conjugated to 10 kDa 4-arm dendrimer (star) hydrazide PEG (Hz4PEG), prepared with 10% w/v PEG (from UniProt P06280 32-429) (enzyme)
